Results from patent publication US20220073643A1 (NANJING GENSCRIPT BIOTECH, published 2022).
Numbering of substitutions follows the chain as printed.

B1: 194D3B2 (antibody, V domains shown)
VH: QAYLQQSGAELVRSGASVKMSCKASGYPFTSYNMHWVKQTPGQGLEWVGYIYPGNGGTNYNQKFRDKATLTADTSSSTAYMQISRLTSDDSAVYFCLTGRGFAYWGQGTLVTVSA
VL: DIVMTQSPSSLIVTPGERVTMSCKSSQSLLNSGNQKNYLTWYQQKPGQPPKLLIYRASTRESGVPDRFTGSGSGTDFTLTISSVQAEDLAVYYCQNDYSYPLTFGIGTKLELK
notes: mouse hybridoma mAb
B2: 232F1E4 (antibody, V domains shown)
VH: QVQLKESGPGLVAPSQSLSITCTVSGFALTTYGVSWVRQPPGKGLEWLGVIWGDGSTHYHSALISRLSIRKDNSKSQVFLKLNSLQTDDTATYYCAKPGRGNAMDYWGQGTSVTVSS
VL: B1 VL with T5S, I12T, P15A, R18K, P49S, R56W, V84M, S99I, I106A, K109M
notes: mouse hybridoma mAb
B3: 185F2G12 (antibody, V domains shown)
VH: QAYLQQSGAELVRSGASVKMSCKASGYTFTSYNMHWVRQTPGQGLEWIGYIYPGNGGTNYSQKFKGKASLTADTSSTTAYMQISSLTSEDSAVYFCATGRGFAYWGQGTLVTVSA
VL: B1 VL with I12T, P15A, R18K, M21L, L30F, S32T, Y55F, S73F, Y98F, I106A
notes: mouse hybridoma mAb
B4: 231C11E9 (antibody, V domains shown)
VH: EVMLVESGGGLVKPGGSLKLSCAASGFTFNNYVMCWVRQTPEKRLEWVATISSGNFYTYYPDSVKGRFTISRDNAKNTLYLQMSSLRSEDTAIYYCASLGRGNALDNWGQGTSVTVSS
VL: B1 VL with S9A, I12T, P15A, G16K, R18K, K24R, R56W, L102F, I106S, L112I
notes: mouse hybridoma mAb
B5: 219F9B8 (antibody, V domains shown)
VH: B3 VH with K19R, R38K, G57H, S61N, S69T, T77S
VL: B1 VL with I12T, P15A, R18K, I106V
notes: mouse hybridoma mAb
B6: 182D10F1 (antibody, V domains shown)
VH: B3 VH with T30S, R38K, S61N, S69T, T77S, A97L, A103T
VL: B1 VL with I12T, P15A, R18K, S22N, L30F, I106V
notes: mouse hybridoma mAb
B7: 213B10A4 (antibody, V domains shown)
VH: B3 VH with L4V, K23R, R38K, N59Y, S61N, S69T, T77S
VL: B1 VL with I12T, P15A, R18K, S73F, I106A
notes: mouse hybridoma mAb
B8: 226A4B5 (antibody, V domains shown)
VH: QAYLQQSGAELVRSGASVRMSCKASGFTFTSYNIHWVKQTPGQGLEWIGYIYPGSGGSNYNQKFMGKATLTADTSSSTVYMQISSLTSEDSAVYFCATGRGFAYWGQGTLVTVSA
VL: B1 VL with I12T, P15A, R18K, L30F, I106T
notes: mouse hybridoma mAb
B9: 198F10B8 (antibody, V domains shown)
VH: B1 VH with K19R, P28T, T30S, V48I, R65K, Y80F, M81I, R85S, D89E
VL: B1 VL with I12T, P15A, L30F, I106V
notes: mouse hybridoma mAb
B10: 267B2C5 (antibody, V domains shown)
VH: B2 VH with S19A, A28S, L82V, A96G
VL: B1 VL with I12T, P15A, R18K, P49S, R56W, S99I, I106G, K109T
notes: mouse hybridoma mAb
B11: 257G7B9 (antibody, V domains shown)
VH: QAYLQQSGAELVRSGASVKMSCKASGYTFTSHNLHWVKQTPGQGLEWIGYIYPGNGNTNYNQKFKGKATLTADTSSSTAYMQISSLTSEDSAVYFCTRDYYGNSFAYWGQGTLVTVSA
VL: DIVMTQSPSSLTEKAGERVSMSCKSSQSLFNSGNQKNYLTWYQQKPGQPPKLLIYWASTRESGVPDRFTGSGSGTDFTLTISSVQAEDLAVYYCQNNYWFPFTFGAGTKLELK
notes: mouse hybridoma mAb
B12: 203A6C9 (antibody, V domains shown)
VH: QVQLKQSGPGLVQPSQSLSITCTVSGFSLTRYGVHWVRQSPGKGLEWLGVIWSGGNTDYNAAFISRLNIRKDNSKSQVFFKMNSLKPNDTAIYYCARAAYFGNSFDYWGQGTTLTVSS
VL: B1 VL with I12P, P15A, R18K, R56W, E61D, D97N, S99I, I106A
notes: mouse hybridoma mAb
B13: 186G12H3 (antibody, V domains shown)
VH: EVMLVESGGGLVKPGGSLKLSCAASRFTLSSYAMSWVRQTPEKRLEWVATISSGGSYTYYFDSVKGRFTISRDTAKNTLNLQMSSLRSEDTAMYYCARLYYGNALDYWGQGTSVTVSS
VL: B1 VL with I12T, P15A, R18K, M21V, R56W, D97N, S99I, I106A, K109T
notes: mouse hybridoma mAb
B14: 203A6D5 (antibody, V domains shown)
VH: B12 VH
VL: B1 VL with I12P, P15A, R18K, R56W, E61D, D97N, S99I, I106A
notes: mouse hybridoma mAb
B15: 241H10A1 (antibody, V domains shown)
VH: QVQLQQSGAELVKPGASVKLSCKASGYTFTSFGINWLRQRPEQGLEWIGWIFPGDGNSKYNENFKGKATLTTDKSSSTAYMQVTRLTSEDSAVYFCARFYYGNSFANWGQGTLVTVSA
VL: B1 VL with I12T, P15A, R18K, R56W, S58A, S99F, L102F, I106G
notes: mouse hybridoma mAb
B16: 277F1F8 (antibody, V domains shown)
VH: B11 VH with A9P, L34M, Y52N, N57G, T58N, T97A, Y107F
VL: B11 VL with K14T, R18K, F30L, N97D, W99R
notes: mouse hybridoma mAb
B17: 259C6F4 (antibody, V domains shown)
VH: B11 VH with T30S, L34I, N57D, T97A, A106V
VL: B11 VL with T5I, R18K, F30L, N97A, W99R
notes: mouse hybridoma mAb
B18: 260G9E8 (antibody, V domains shown)
VH: B11 VH with Y3D, T30A, L34M, N57G, N59K, K65T, S84T, T97A
VL: B11 VL with R18K, S22R, F30L, E87D, N97D, W99M
notes: mouse hybridoma mAb
B19: 267H5F12 (antibody, V domains shown)
VH: B11 VH with L34M, Y52S, N57Y, K65R, A106T
VL: B11 VL with D76E
notes: mouse hybridoma mAb
B20: 273C10E5 (antibody, V domains shown)
VH: B15 VH
VL: B1 VL with I12T, P15A, R18K, R56W, S58A, T69A, S99F, L102F, I106A
notes: mouse hybridoma mAb
B21: 234A10F7 (antibody, V domains shown)
VH: B15 VH with V83L, N107Y
VL: B1 VL with I12T, P15T, E17Q, R18K, R56W, S58A, S99F, L102F, I106A
notes: mouse hybridoma mAb
B22: 259C6F7 (antibody, V domains shown)
VH: B11 VH with T30S, L34I, N57D, T97A, A106V
VL: B11 VL with T5I, R18K, F30L, N97A, W99R
notes: mouse hybridoma mAb
B23: 262H9H6 (antibody, V domains shown)
VH: B11 VH with L34M, Y52S, N57Y, K65R, A106T
VL: B11 VL with D76E
notes: mouse hybridoma mAb
B24: 258D11C4 (antibody, V domains shown)
VH: B11 VH with T30S, L34M, N57G
VL: B11 VL with E61Q, N97D
notes: mouse hybridoma mAb
B25: 257G7F7 (antibody, V domains shown)
VH: B11 VH
VL: B11 VL
notes: mouse hybridoma mAb
B26: 196A12B10 (antibody, V domains shown)
VH: QIQWVQSGPELKKPRETVKISCKASGYTFTDYSMHWVKQAPGKGLKWMGWINSETGEATYADDFRGRFALSLETSATTAFLQINSLKNEDTGTYFCARFYYGNSFASWGQGTTLTVSS
VL: DIVMTQFPSSLTVTAGEKVTMTCKSSQSLLNGGNQKNYLTWYQQKPGLPPKLLIYWASTRESGVPDRFTGSGSGTEFTLTISSVQAEDLAVYYCQNNYYFPLTFGAGTKLELK
notes: mouse hybridoma mAb; also called 196Al2B10

Target: T1, human Claudin18.2 (human)
T1 construct: also called CLDN18.2
Assay: cell ELISA, Claudin18.2-expressing HEK293T cells
Protocol: To determine protein binding EC₅₀ by Cell ELISA, 96-well U-bottom microplates were pre-blocked with blocking buffer (5% MPBS, 1×PBS with 5% skim milk) overnight at 4° C. On the next day, the Claudin18.2-expressing HEK293T stable cell line was suspended at 1.5×10⁶ cells/ml in blocking buffer, added to the plate in 100 μl/well and incubated at room temperature for 1 hour.
Raw data were plotted with GraphPad Prism v6.02 software with four parameters, best-fit value program to analyze the EC₅₀.

Row | Binder | EC50
1 | B1 | 1.09 nM
2 | B2 | 0.966 nM
3 | B3 | 1.73 nM
4 | B4 | 1.91 nM
5 | B5 | 1.16 nM
6 | B6 | 1.65 nM
7 | B7 | 2.33 nM
8 | B8 | 1.59 nM
9 | B9 | 1.82 nM
10 | B10 | 0.895 nM
11 | B11 | 1.02 nM
12 | B12 | 0.916 nM
13 | B13 | 2.21 nM
14 | B14 | 1.16 nM
15 | B15 | 1.66 nM
16 | B16 | ~4410 nM
17 | B17 | 2.32 nM
18 | B18 | 0.821 nM
19 | B19 | ~0.513 nM
20 | B20 | 0.181 nM
21 | B21 | 0.857 nM
22 | B22 | ~0.443 nM
23 | B23 | 0.879 nM
24 | B24 | ~0.406 nM
25 | B25 | ~0.413 nM
26 | B26 | 1.78 nM
